From patent CN116574187A (ZHEJIANG SHIMAI PHARMACEUTICAL CO LTD, dated 2023)

B1: GCC-56C9M mAb (antibody, human IgG1, kappa)
heavy: not shown
light: QIVLTQSPAIMSVSPGEKVTITCSASSSVSYIHWFQQRPGTSPKLWIYSTSNLASGVPARFSGSGSGTSYSLTISRMEAEDAATYYCQQRSSYPLTFGTGTKLELKRTVAAPSVFIFPPSDEQLKSGTASVVCLLNNFYPREAKVQWKVDNALQSGNSQESVTEQDSKDSTYSLSSTLTLSKADYEKHKVYACEVTHQGLSSPVTKSFNRGEC
notes: Chimeric full IgG1: Fab of mouse clone 56C9 fused to human IgG1 Fc; expressed in CHO-S cells; also called 抗GUCY2C mAb; 抗GUCY2C单克隆抗体
B2: GCC-56C9H4-M6MV1-1 (bispecific antibody, human IgG1, kappa)
light: EVQLVESGGGLVKPGGSLRLSCAASGFTFSSYAMTWVRQTPEKRLEWVATMSSGGGYTYYLDSVKGRFTISRDNAKNTLYLQMSSLRADDTAVYYCARHNYGYNYAMDYWGQGTLVTVSSGGGGSGGGGSGGGGSEIVLTQSPAIQSVSPGEKVTITCSASSSVSYIHWYQQRPGKAPKLLIYSTSNLASGVPARFSGSGSGTDFSLTISRLQAEDAATYYCQQRSSYPLTFGQGTKLEIKGSGGGGSGGGGSEIVVTQSPATLSVSPGERATLSCRSSTGAVTTSNYANWVQQKPGQAPRGLIGGANKRAPGVPARFSGSLSGDEATLTISSLQSEDFAVYYCALWYSNLWVFGQGTKLEIKRTVAAPSVFIFPPSDEQLKSGTASVVCLLNNFYPREAKVQWKVDNALQSGNSQESVTEQDSKDSTYSLSSTLTLSKADYEKHKVYACEVTHQGLSSPVTKSFNRGECGGSGSCPPCPAPEAAGAPSVFLFPPKPKDTLMISRTPEVTCVVVDVSHEDPEVKFNWYVDGVEVHNAKTKPREEQYNSTYRVVSVLTVLHQDWLNGKEYKCKVSNKALGAPIEKTISKAKGQPREPQVYTLPPSRDELTKNQVSLLCLVKGFYPSDIAVEWESNGQPENNYKTTPPVLDSDGSFFLHSKLTVDKSRWQQGNVFSCSVMHEALHNHYTQKSLSLSPG
heavy: EVQLVESGGGLVQPGGSLRLSCAASGFTFNTYAMNWVRQAPGKGLEWVARIRSKYNNYATYYADSVKGRFTISRDDSKNTLYLQMNSLRAEDTAVYYCARHGNFGSSYVSYFAYWGQGTTVTVSSASTKGPSVFPLAPSSKSTSGGTAALGCLVKDYFPEPVTVSWNSGALTSGVHTFPAVLQSSGLYSLSSVVTVPSSSLGTQTYICNVNHKPSNTKVDKKVEPKSCDKTHTCPPCPAPEAAGAPSVFLFPPKPKDTLMISRTPEVTCVVVDVSHEDPEVKFNWYVDGVEVHNAKTKPREEQYNSTYRVVSVLTVLHQDWLNGKEYKCKVSNKALGAPIEKTISKAKGQPREPQVYTLPPSRDELTKNQVSLLCLVKGFYPSDIAVEWESNGQPENNYKTTPPVLDSDGSFFLHSKLTVDKSRWQQGNVFSCSVMHEALHNHYTQKSLSLSPG
notes: Heterodimer of a 'light chain' (humanised anti-GUCY2C scFv - linker - anti-CD3 hSP34 VL-CL - mFc7.2) and a 'heavy chain' (anti-CD3 VH-CH1 - mFc7.2); expressed in 293FS or CHO-S cells; also called GUCY2C×CD3 IBiTE

Assays:
[1] = target: 细胞表面表达的GUCY2C (HT55, SW948, LS174T-GUCY2C, HT1080-GUCY2C细胞) (human, UniProt P25092 24-1073); test: cell-based or functional assay
细胞表面表达的GUCY2C (HT55, SW948, LS174T-GUCY2C, HT1080-GUCY2C细胞), sequence (P25092 24-1073): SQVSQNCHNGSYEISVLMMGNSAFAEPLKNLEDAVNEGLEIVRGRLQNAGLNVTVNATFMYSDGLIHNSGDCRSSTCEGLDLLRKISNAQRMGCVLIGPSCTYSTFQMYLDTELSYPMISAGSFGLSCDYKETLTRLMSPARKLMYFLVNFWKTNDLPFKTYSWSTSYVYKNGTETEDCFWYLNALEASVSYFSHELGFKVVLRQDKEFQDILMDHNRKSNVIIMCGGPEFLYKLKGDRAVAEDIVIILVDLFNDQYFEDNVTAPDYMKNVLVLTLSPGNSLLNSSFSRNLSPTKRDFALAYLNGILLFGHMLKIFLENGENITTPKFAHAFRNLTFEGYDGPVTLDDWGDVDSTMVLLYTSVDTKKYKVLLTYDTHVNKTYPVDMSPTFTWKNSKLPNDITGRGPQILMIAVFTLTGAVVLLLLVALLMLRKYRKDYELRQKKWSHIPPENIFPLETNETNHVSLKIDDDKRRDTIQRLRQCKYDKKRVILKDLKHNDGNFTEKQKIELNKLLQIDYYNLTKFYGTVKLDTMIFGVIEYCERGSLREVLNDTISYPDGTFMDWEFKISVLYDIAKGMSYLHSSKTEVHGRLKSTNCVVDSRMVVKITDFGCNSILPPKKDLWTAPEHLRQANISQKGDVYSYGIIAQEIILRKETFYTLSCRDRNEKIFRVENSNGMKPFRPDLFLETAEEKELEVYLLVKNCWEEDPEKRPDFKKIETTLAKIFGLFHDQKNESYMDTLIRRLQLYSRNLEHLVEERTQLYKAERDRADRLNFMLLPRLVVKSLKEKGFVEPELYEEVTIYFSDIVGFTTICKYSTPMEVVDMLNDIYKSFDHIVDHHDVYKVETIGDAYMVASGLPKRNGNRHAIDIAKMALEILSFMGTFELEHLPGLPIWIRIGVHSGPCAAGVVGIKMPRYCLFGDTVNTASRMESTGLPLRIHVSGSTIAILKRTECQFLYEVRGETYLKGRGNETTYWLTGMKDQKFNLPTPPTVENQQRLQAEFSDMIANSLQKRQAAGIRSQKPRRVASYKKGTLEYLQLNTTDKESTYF

[2] = target: T1, 人GUCY2C蛋白(His标签) (human, UniProt P25092 24-430); test: ELISA, coated human GUCY2C protein, anti-Fc HRP detection
T1 construct: Bought from ACRO; also called 重组人GUCY2C; human GUCY2C protein (His tag); not shown: His tag
T1 sequence (P25092 24-430 limits assumed): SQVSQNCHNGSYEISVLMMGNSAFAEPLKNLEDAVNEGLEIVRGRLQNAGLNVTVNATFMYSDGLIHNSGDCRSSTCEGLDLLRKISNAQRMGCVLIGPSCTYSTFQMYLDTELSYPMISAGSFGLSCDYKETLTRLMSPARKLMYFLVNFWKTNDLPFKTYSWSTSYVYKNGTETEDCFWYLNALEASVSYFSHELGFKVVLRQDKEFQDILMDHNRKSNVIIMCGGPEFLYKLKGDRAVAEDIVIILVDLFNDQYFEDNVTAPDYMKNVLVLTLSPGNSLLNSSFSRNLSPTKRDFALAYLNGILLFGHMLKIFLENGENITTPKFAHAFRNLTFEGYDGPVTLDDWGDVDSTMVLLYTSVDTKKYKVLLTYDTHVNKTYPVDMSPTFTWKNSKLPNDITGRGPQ

[3] = target: T2, 人CD3蛋白 (human); test: ELISA, coated human CD3 protein
T2 construct: Bought from ACRO; also called 重组人CD3; human CD3 protein (Fc标签)
T2 sequence (P07766 23-126): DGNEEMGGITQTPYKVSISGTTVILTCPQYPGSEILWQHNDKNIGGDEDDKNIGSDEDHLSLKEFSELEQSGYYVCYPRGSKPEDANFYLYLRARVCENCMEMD

[4] = target: T1, 人GUCY2C蛋白(His标签); test: ELISA, coated human GUCY2C protein
[5] = target: CD3 on TCR/CD3效应细胞 (Jurkat-NFAT-CD3) (human); test: cell-based or functional assay
CD3 on TCR/CD3效应细胞 (Jurkat-NFAT-CD3) (human), sequence (chain, as listed by the source): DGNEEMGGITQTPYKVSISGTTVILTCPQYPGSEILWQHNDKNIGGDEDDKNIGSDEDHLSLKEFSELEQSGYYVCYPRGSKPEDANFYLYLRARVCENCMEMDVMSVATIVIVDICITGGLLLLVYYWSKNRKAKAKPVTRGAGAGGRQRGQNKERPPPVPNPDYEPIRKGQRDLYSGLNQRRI

Binder | ADCC reporter: activation of Jurkat-CD16a cells in the presence of HT1080-GUCY2C cells (luciferase), EC50 [1] [µg/mL] | EC50 [2] [µg/mL] | EC50 [3] [µg/mL] | EC50 [4] [µg/mL] | T cell activation: Jurkat-NFAT-CD3 luciferase reporter with HT55 target cells, EC50 [1] [µg/mL] | T cell activation: Jurkat-NFAT-CD3 luciferase reporter with LS174T-GUCY2C target cells, EC50 [1] [µg/mL] | T cell activation: Jurkat-NFAT-CD3 luciferase reporter with SW948 target cells, EC50 [1] [µg/mL] | killing of HT55 cells with human PBMC (CCK8), EC50 [1] [µg/mL] | killing of LS174T-GUCY2C cells with human PBMC (CCK8), EC50 [1] [µg/mL] | killing of SW948 cells with human PBMC (CCK8), EC50 [1] [µg/mL] | T cell activation: Jurkat-NFAT-CD3 luciferase reporter with HT55 target cells, EC50 [5] [µg/mL] | T cell activation: Jurkat-NFAT-CD3 luciferase reporter with LS174T-GUCY2C target cells, EC50 [5] [µg/mL] | T cell activation: Jurkat-NFAT-CD3 luciferase reporter with SW948 target cells, EC50 [5] [µg/mL]
B1 | ~0.0247 | 0.193 | – | – | – | – | – | – | – | – | – | – | –
B2 | – | – | 0.116 | 0.14 | ~0.374 | ~0.335 | ~0.519 | 0.0152 | 0.00274 | 0.012 | ~0.374 | ~0.335 | ~0.519
